Laboratory results published in patent US20050054575A1 (US Dept. of Health and Human Services, published 2005).

B1: PSA-3 (L-155) also called PSA-3A (peptide)
peptide: VLSNDVCAQV
notes: Synthetic analog peptide; also called agonist peptide PSA-3A
B2: PSA-3 (Y-154/L-155) (peptide)
peptide: YLSNDVCAQV
notes: Synthetic analog peptide; also called PSA-3 (L155/Y154)

Legend:
[1] = target: T1, HLA-A2 (human); assay: flow cytometry of HLA-A2 on T2A2 cells, peptide 0 to 50 µg/ml
T1 construct: whole, on cells; also called HLA-A2.1; MHC-class I A2
Procedure: (§1) Peptide Binding to HLA-A2. […] Briefly, 1×10⁶ cells in serum-free Iscove's modified Dulbecco's complete medium were incubated with peptides at a concentration of 50 μg/ml in 24 well culture plates at 37° C. in 5% CO₂. Flow cytometry for peptide binding was performed using T2 cells and single-color analysis. After cells were washed three times in DPBS, as described above, they were incubated for 1 h with HLA-A2 specific MAb (One Lambda, Inc.) using […] of a 1× working dilution per 10⁶ cells. UPC-10 (Cappel/Organon Teknika) was used as isotype control. The cells were washed three times and incubated with 1:100 dilution of FITC-labeled anti-mouse IgG (Becton Dickinson). Analysis was conducted with the FACScan, as described above. Cells were maintained on ice during all cell preparation and staining.

[2] = target: T1, HLA-A2; assay: flow cytometry of HLA-A2 on T2A2 cells
Procedure: as §1

[3] = target: T1, HLA-A2; assay: flow cytometry of HLA-A2 on peptide-loaded T2A2 cells
Procedure: as §1

Row | Binder | binding result [2] | also measured
1 | B1 |  | binding result [1]: binds
2 | YISNDVCAQV (Synthetic analog peptide) [PSA-3 (Y-154)] | binds | 
3 | VISNDVCAQL (Synthetic analog peptide) [PSA-3 (L-163)] |  | binding result [3]: no binding (tested: 0 to 50 µg/ml)
4 | B2 | binds | 
